Experimental data as given in US20260250421A1 (BIOCYTOGEN PHARMACEUTICALS BEIJING, published 2026).
Changes are numbered by the printed parent chain. Each block holds one binder with its values, some of them ahead of it.

Experiments:
[1] = target: T1, His-tagged human PTK7 protein (human, UniProt Q13308 31-704); assay: SPR Biacore 8K, Ab on Protein A chip
T1 construct: Bought protein; also called hPTK7-His; not shown: His tag
T1 sequence: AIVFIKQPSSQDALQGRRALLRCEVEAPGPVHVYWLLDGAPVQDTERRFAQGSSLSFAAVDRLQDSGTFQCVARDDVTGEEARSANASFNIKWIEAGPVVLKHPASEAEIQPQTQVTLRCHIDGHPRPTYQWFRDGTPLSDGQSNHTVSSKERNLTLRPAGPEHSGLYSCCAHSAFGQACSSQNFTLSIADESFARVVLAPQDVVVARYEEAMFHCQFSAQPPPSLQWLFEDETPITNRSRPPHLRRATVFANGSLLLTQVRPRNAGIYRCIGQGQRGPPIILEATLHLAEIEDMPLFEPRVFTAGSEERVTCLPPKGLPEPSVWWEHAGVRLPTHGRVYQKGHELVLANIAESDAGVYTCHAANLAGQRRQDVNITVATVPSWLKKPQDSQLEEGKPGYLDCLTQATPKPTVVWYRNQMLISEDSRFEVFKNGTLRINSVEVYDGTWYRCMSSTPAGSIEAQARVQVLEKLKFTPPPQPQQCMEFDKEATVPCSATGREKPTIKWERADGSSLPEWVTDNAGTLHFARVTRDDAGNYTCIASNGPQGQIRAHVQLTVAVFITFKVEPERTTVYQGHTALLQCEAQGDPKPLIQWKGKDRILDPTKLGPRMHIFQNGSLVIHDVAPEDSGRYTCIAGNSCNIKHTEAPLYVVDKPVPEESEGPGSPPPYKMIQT
Method: Purified anti-PTK7 antibodies were diluted to 1 μg/mL and then injected into the Biacore™ 8K biosensor at 10 μL/min for about 50 seconds to achieve a desired protein density (e.g., about 50 response units (RU)). The His-tagged PTK7 protein at a concentration of 200 nM or 0 nM was then injected at 30 μL/min for 180 seconds. Dissociation was monitored for 400 seconds. The chip was regenerated after the last injection of each titration with glycine (pH 2.0, 30 μL/min for 30 seconds).

[2] = target: T1, His-tagged human PTK7 protein; assay: BLI Octet binning on hPTK7-His; competitor 1F2
Method: (§1) Relative positions of target protein epitope between a pair of purified anti-PTK7 antibodies were analyzed by Biolayer Interferometry (BLI) using ForteBio Octet system at 30° C. A total of […] purified antibodies were used: 1A7, 1A11, 1F2, 2A5, 2D11, 2F5, 3C4 and 3E6.
(§2) 1×HBS-EP+ buffer (10 mM 4-(2-hydroxyethyl)-1-piperazineethanesulfonic acid (HEPES), 150 mM NaCl, 3 mM ethylenediaminetetraacetic acid (EDTA) and 0.05% P20, pH7.4) diluted from HBS-EP+ buffer (10×) was used as the running buffer throughout the experiment. His-tagged human PTK7 protein was captured at a flow rate of 10 μL/min, and 200 nM of antibody (Analyte 1) was injected at a flow rate of 30 μL/min to bind the ligand. Another antibody (Analyte 2) was injected under the same conditions to determine whether the binding of different antibodies interfered with each other. The binding time was 300 s for each antibody.
(§3) The binding value of each antibody was obtained using Data Analysis HT 12.0. To quantify the interference of one antibody binding to another, a binding ratio was calculated to compare each pair of antibodies. The binding ratio is defined as the binding value of the second antibody (Analyte 2), divided by the binding value of the first antibody (Analyte 1). […] In general, antibody pairs that interfere with each other have the same or overlapping epitopes.

[3] = target: T1, His-tagged human PTK7 protein; assay: BLI Octet binning on hPTK7-His; competitor 2F5
Method: as §1, §2, §3

[4] = target: T2, dog PTK7 on dog cancer cell lines (dog, UniProt A0A8I3N574 31-1070); assay: flow cytometry, D-17 dog cells, Ab 5 ug/mL
T2 construct: whole, on cells; Endogenous protein on dog tumour cell lines; also called PTK7 on CMT-U27 and D-17 cells; dog cancer cells
T2 sequence: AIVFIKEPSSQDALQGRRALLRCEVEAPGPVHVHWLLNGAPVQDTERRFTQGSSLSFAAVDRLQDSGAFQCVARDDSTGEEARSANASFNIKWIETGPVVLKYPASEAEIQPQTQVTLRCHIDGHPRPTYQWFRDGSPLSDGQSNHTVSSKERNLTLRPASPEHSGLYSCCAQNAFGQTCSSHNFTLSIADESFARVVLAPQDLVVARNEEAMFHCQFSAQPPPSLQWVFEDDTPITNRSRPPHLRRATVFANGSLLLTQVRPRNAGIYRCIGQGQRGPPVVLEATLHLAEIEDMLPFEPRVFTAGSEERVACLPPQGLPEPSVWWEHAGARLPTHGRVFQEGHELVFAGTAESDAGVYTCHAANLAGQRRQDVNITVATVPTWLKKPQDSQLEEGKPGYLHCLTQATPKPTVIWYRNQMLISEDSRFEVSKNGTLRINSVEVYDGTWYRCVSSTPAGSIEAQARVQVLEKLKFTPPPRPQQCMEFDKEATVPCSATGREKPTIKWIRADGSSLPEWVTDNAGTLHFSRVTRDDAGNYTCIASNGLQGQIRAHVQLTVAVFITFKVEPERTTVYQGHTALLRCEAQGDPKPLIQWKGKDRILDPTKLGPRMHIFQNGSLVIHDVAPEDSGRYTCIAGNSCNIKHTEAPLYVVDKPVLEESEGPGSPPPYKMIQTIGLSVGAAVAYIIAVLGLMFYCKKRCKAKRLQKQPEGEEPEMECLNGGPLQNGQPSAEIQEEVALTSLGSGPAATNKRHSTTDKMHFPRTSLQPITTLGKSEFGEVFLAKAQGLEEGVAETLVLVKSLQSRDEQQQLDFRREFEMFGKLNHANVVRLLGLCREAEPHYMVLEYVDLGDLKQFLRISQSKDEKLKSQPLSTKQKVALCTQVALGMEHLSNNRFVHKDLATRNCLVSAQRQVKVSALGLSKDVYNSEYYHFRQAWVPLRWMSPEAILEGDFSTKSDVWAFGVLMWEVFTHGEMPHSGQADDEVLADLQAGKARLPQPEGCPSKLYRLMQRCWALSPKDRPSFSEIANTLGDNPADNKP
Method: The binding activity of anti-PTK7 antibodies to cancer cell lines was verified by flow cytometry. […] Purified anti-PTK7 antibody with a concentration of 5 μg/mL was added to each well and was incubated at 4° C. for 30 minutes. […] The cells were collected, and the mean fluorescence intensity (MFI) was determined. Human IgG1 was used as ISO control.

Kd [1]: 3.44 nM
koff [1]: 0.000454 s⁻¹
kon [1]: 132000 M⁻¹ s⁻¹
binding ratio [2]: 0.74
binding ratio [3]: 0.71
MFI [4]: 86300
B2: 3E6 (antibody, V domains shown)
VH: QVQLVESGAEVKKPGESLRISCRGSGYSFTSYWISWVRQMPGKGLEWMGRIDPSDSYTKYSPSFQGHVTISADKSISTAYLQWSSLKASDTAMYYCARRDGDYFDFDYWGQGTLVTVSS
VL: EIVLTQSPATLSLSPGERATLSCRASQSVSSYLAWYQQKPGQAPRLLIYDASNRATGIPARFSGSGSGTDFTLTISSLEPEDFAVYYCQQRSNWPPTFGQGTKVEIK
notes: also called anti-PTK7 antibody 3E6

Kd [1]: 8.11 nM
koff [1]: 0.000249 s⁻¹
kon [1]: 30600 M⁻¹ s⁻¹
binding ratio [2]: 0.93
binding ratio [3]: 0.14
MFI [4]: 106000
B6: 2D11 (antibody, V domains shown)
VH: QVQLVESGGGVVQPGRSLRLSCAASGFTFSSYGMHWVRQAPGKGLEWVAVIFYDGSNKYYADSVKGRFTISRDNSKNTLYLQMNSLRAEDTSVYYCARDVAAPGSRAEYFQNWGQGTLVTVSS
VL: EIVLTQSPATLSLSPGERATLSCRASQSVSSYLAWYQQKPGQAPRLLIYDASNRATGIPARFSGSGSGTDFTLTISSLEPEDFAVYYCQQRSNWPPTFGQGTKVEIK
notes: also called anti-PTK7 antibody 2D11

Kd [1]: 25.9 nM
koff [1]: 0.00281 s⁻¹
kon [1]: 108000 M⁻¹ s⁻¹
binding ratio [2]: 0.78
binding ratio [3]: -0.02
MFI [4]: 95900
B7: 2A5 (antibody, V domains shown)
VH: B6 VH with E6Q, S31N, F52W, S56R, S92A, A102P, P103A
VL: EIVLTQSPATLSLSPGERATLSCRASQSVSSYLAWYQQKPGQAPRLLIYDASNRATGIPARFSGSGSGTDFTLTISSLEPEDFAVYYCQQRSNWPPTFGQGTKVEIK
notes: also called anti-PTK7 antibody 2A5

Kd [1]: 109 nM
koff [1]: 0.00388 s⁻¹
kon [1]: 35600 M⁻¹ s⁻¹
binding ratio [2]: 0.85
binding ratio [3]: 0.08
MFI [4]: 131000
B8: 2F5 (antibody, V domains shown)
VH: B6 VH with A23V, S31N, V50I, F52Y, S92A, P103A, F110L, Q111H, N112H
VL: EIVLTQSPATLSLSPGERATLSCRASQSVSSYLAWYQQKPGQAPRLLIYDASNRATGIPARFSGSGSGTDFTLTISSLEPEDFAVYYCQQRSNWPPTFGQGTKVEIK
notes: also called anti-PTK7 antibody 2F5

More lines, now with the values behind:

B1: 3C4 (antibody, V domains shown)
VH: B2 VH with V5E, E6Q, G8R, R23K, K59N, S61N, D102S
VL: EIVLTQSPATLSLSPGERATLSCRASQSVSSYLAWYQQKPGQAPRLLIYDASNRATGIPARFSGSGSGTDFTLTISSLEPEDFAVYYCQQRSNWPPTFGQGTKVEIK
notes: also called anti-PTK7 antibody 3C4
Kd [1]: 25.4 nM
koff [1]: 0.00237 s⁻¹
kon [1]: 93200 M⁻¹ s⁻¹
binding ratio [2]: 0.9
binding ratio [3]: 0.86
MFI [4]: 34600

B3: 1F2 (antibody, V domains shown)
VH: QVQLVQSGGGLVQPGGSLRLSCAASGFTFSRYEMNWVRQAPGKGLEWVSYINSIGSAINYADSVKGRFTISRDNAKNSLYLQMRSLRAEDTAVYYCVREDNWNPGYWGQGTLVTVSS
VL: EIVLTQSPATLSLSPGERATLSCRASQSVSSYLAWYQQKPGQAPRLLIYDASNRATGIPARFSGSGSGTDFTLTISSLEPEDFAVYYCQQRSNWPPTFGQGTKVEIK
notes: also called anti-PTK7 antibody 1F2
Kd [1]: 69.8 nM
koff [1]: 0.012 s⁻¹
kon [1]: 172000 M⁻¹ s⁻¹
binding ratio [2]: 0.03
binding ratio [3]: 0.56
MFI [4]: 64100

B4: 1A11 (antibody, V domains shown)
VH: QVQLVQSGPGLVKPSETLSLTCTVSGGSINSYYWNWIRQPPGKGLEWIGYIYYSGSTNYNPSLKSRVTISVDTSKNQFSLKLSSVTAADTAVYYCARDPHDYIRGHFDLWGRGTLFTVSS
VL: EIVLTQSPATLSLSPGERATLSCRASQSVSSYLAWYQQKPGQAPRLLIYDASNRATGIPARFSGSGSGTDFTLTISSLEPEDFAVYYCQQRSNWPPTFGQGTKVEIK
notes: also called anti-PTK7 antibody 1A11
Kd [1]: 41 nM
koff [1]: 0.00318 s⁻¹
kon [1]: 77600 M⁻¹ s⁻¹
binding ratio [2]: 0.86
binding ratio [3]: 0.67
MFI [4]: 90600

B5: 1A7 (antibody, human IgG1, V domains shown)
VH: B6 VH with S31N, F52Y, Y59F, N84S, S92A, A102P, Q111H, N112H
VL: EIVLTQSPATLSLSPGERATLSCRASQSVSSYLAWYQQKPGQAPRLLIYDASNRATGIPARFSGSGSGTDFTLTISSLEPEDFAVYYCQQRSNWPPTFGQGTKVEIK
notes: also called anti-PTK7 antibody 1A7
Kd [1]: 40.9 nM
koff [1]: 0.00425 s⁻¹
kon [1]: 104000 M⁻¹ s⁻¹
binding ratio [2]: 0.84
binding ratio [3]: 0.07
MFI [4]: 120000
